# Results as given in US12258605B2, “Alkane oxidation by modified hydroxylases” (The California Institute of Technology, priority 2005, dated 2025).
# Positions count from the first letter of the chain named. Names and notes keep the numbering of the source. “Also recorded” adds a separate entry of the source.
# B1: 35-E11: P450 BM-3 variant, SEQ ID NO:7: 53-5H substitutions plus E464G and I710T (protein)
# chain: TIKEMPQPKTFGELKNLPLLNTDKPVQALMKIADELGEIFKFEAPGCVTRYLSSQRLIKEACDESRFDKNLSQALKFFRDFSGDGLFTSWTHEINWKKAHNILLPSFSQQAMKGYHAMMVDIAVQLVQKWERLNADEHIEVSEDMTRLTLDTIGLCGFNYRFNSFYRDQPHPFIISMVRALDEVMNKLQRANPDDPAYDENKRQCQEDIKVMNDLVDKIIADRKARGEQSDDLLTQMLNGKDPETGEPLDDGNISYQIITFLIAGHETTSGLLSFALYFLVKNPHVLQKVVEEAARVLVDPVPSYKQVKQLKYVGMVLNEALRLWPTFPAFSLYAKEDTVLGGEYPLEKGDEVMVLIPQLHRDKTIWGDDVEEFRPERFENPSAIPQHAFKPFGNGQRACIGQQFALHEATLVLGMMLKHFDFEDHTNYELDIKETLTLKPEGFVVKAKSKKIPLGGIPSPSTGQSAKKVRKKAENAHNTPLLVLYGSNMGTAEGTARDLADIAMSKGFAPQVATLDSHAGNLPREGAVLIVTASYNGHPPDNAKQFVDWLDQASADEVKGVRYSVFGCGDKNWATTYQKVPAFIDETLAAKGAENIADRGEADASDDFEGTYEEWREHMWSDVAAYFNLDIENSEDNKSTLSLQFVDSAADMPLAKMHGAFSTNVVASKELQQPGSARSTRHLEIELPKEASYQEGDHLGVIPRNYEGTVNRVTARFGLDASQQIRLEAEEEKLAHLPLAKTVSVEELLQYVELQDPVTRTQLRAMAAKTVCPPHKVELEALLEKQAYKEQVLAKRLTMLELLEKYPACEMKFSEFIALLPSIRPRYYSISSSPRVDEKQASITVSVVSGEAWSGYGEYKGIASNYLAELQEGDTITCFISTPQSEFTLPKDPETPLIMVGPGTGVAPFRGFVQARKQLKEQGQSLGEAHLYFGCRSPHEDYLYQEELENAQSEGIITLHTAFSRMPNQPKTYVQHVMEQDGKKLIELLDQGAHFYICGDGSQMAPAVEATLMKSYADVHQVSEADARLWLQQLEEKGRYAKDVWAG
# modifications: mutant P450 35-E11 protein sequence
# B2: P450PMO: P450 BM-3 variant, SEQ ID NO:125; 7-7 plus G443A and D698G; propane monooxygenase (protein)
# chain: B1 chain with L52I, A74E, S82G, L188P, I366V, G443A, D698G
# modifications: Mutant P450PMO protein sequence
# notes: 7-7 plus G443A and D698G; propane monooxygenase
# B3: 20-D3: P450 BM-3 variant, SEQ ID NO:11; 35-E11 plus H285R (protein)
# chain: B1 chain with H285R
# modifications: mutant P450 20-D3 protein sequence
# notes: 35-E11 plus H285R
# B4: Wild-type BM-3: wild-type cytochrome P450 BM-3 from Bacillus megaterium, SEQ ID NO:1 (protein, listed as Bacillus megaterium)
# chain: TIKEMPQPKTFGELKNLPLLNTDKPVQALMKIADELGEIFKFEAPGRVTRYLSSQRLIKEACDESRFDKNLSQALKFVRDFAGDGLFTSWTHEKNWKKAHNILLPSFSQQAMKGYHAMMVDIAVQLVQKWERLNADEHIEVPEDMTRLTLDTIGLCGFNYRFNSFYRDQPHPFITSMVRALDEAMNKLQRANPDDPAYDENKRQFQEDIKVMNDLVDKIIADRKASGEQSDDLLTHMLNGKDPETGEPLDDENIRYQIITFLIAGHETTSGLLSFALYFLVKNPHVLQKAAEEAARVLVDPVPSYKQVKQLKYVGMVLNEALRLWPTAPAFSLYAKEDTVLGGEYPLEKGDELMVLIPQLHRDKTIWGDDVEEFRPERFENPSAIPQHAFKPFGNGQRACIGQQFALHEATLVLGMMLKHFDFEDHTNYELDIKETLTLKPEGFVVKAKSKKIPLGGIPSPSTEQSAKKVRKKAENAHNTPLLVLYGSNMGTAEGTARDLADIAMSKGFAPQVATLDSHAGNLPREGAVLIVTASYNGHPPDNAKQFVDWLDQASADEVKGVRYSVFGCGDKNWATTYQKVPAFIDETLAAKGAENIADRGEADASDDFEGTYEEWREHMWSDVAAYFNLDIENSEDNKSTLSLQFVDSAADMPLAKMHGAFSTNVVASKELQQPGSARSTRHLEIELPKEASYQEGDHLGVIPRNYEGIVNRVTARFGLDASQQIRLEAEEEKLAHLPLAKTVSVEELLQYVELQDPVTRTQLRAMAAKTVCPPHKVELEALLEKQAYKEQVLAKRLTMLELLEKYPACEMKFSEFIALLPSIRPRYYSISSSPRVDEKQASITVSVVSGEAWSGYGEYKGIASNYLAELQEGDTITCFISTPQSEFTLPKDPETPLIMVGPGTGVAPFRGFVQARKQLKEQGQSLGEAHLYFGCRSPHEDYLYQEELENAQSEGIITLHTAFSRMPNQPKTYVQHVMEQDGKKLIELLDQGAHFYICGDGSQMAPAVEATLMKSYADVHQVSEADARLWLQQLEEKGRYAKDVWAG
# What was measured:
# [1] = Methane to methanol conversion (alcohol oxidase/Purpald); assay type: biochemical; details: for Methane TTN: methane to methanol
# Experimental: The 35-E11 variant was tested for the ability to convert methane to methanol using the method of Anthon and Barrett (Agric. Food Chem., 52:3749 (2004)). The method was optimized so that it could detect methanol concentrations in water as low as 10 μM.
# The mutant BM-3 enzymes described below were purified using published procedures and used as catalysts in small reactions with methane. In glass head space vials containing magnetic stirring bars, BM-3 catalyst was added to 0.1 M potassium phosphate buffer (pH=8) saturated with methane. The vials were then crimped shut and charged to 20 psi with methane. To start the biotransformation, an NADPH regeneration system consisting of NADP+, isocitrate, and isocitric dehydrogenase was added through a syringe. The reaction was allowed to stir 12-15 hours. Methanol production was measured using a coupled enzyme assay. Aliquots of the reaction were transferred to 96-well microtitre plates and reacted with the enzyme alcohol oxidase for 5 minutes at room temperature. Alcohol oxidase converts the methanol produced by the BM-3 variants into formaldehyde which can be detected with the dye Purpald. To detect formaldehyde and quench the alcohol oxidase reaction, a solution of Purpald in 2 M NaOH was added and allowed to react for one hour. The purple color that Purpald forms in the presence of formaldehyde was quantified one hour later by spectrophotometrically reading the well at 550 nm and comparing the absorbance against similarly-treated solutions of BM-3, NADPH regeneration system, and methane-free buffer spiked with known concentrations of methanol. The results of these biotransformations are reported in Table 3 and sample spectra from the colorimetric assay are shown in FIG. 7.
# Reactions for enzyme-catalyzed conversion of methane to methanol were carried out in 10 mL glass headspace vials. A 470 μL reaction mixture containing 5 μM purified BM-3 variant in 0.1 M potassium phosphate buffer (pH 8.0) was first added to the vial. The vial was immediately topped with a septum, pressurized with 30 psi of methane and shaken at 4° C. for 1 hour. […] For determination of total turnover, the reaction was allowed to proceed for 20 hours at room temperature.
# The amount of methanol product formed during the 20 hr methane reaction was quantified colorimetrically with the use of alcohol oxidase and Purpald. 190 μL of the reaction mixture is transferred onto a single cell of a 96 well plate. 10 μL of 0.05 U/μL solution of alcohol oxidase (from Pichia pastoris, purchased from Sigma-Aldrich) was added to cell and allowed to incubate at room temperature for 5 minutes. During this time, the alcohol oxidase converts the methanol into formaldehyde. Purpald (168 mM in 2 M NAOH) was then added to form a purple product with the formaldehyde in solution. The purple color was read approximately 1 hour later at 550 nm using a Spectramax Plus microtiter plate reader. The concentration of methanol was determined based on the measure absorbance in comparison to a methanol calibration curve. The methanol calibration curve was generated with several standards. Each standard contained 100 μL of a methanol solution (10, 20, 40, 60, 100 μM) and 90 μL of the methane reaction mixture described above, without the methane pressurization.
# The relative dimethyl ether (DME) activity was measured, 1 hour after treatment with Purpald, as the average net and absorbance at 550 nm from 8 microtitre plate DME reactions of the mutant compared to 8 equivalent reactions of 35-E11. All values were normalized by measuring the P450 concentration in each well with CO binding. “Asteriks” indicate criteria used to select mutants from libraries for further characterization. The oxidation rate is measured as absorbance change at 340 nm over 1 minute upon the addition of NADPH to 8 microtitre plate wells containing P450-containing cell lysate and compared to 8 equivalent reactions of 35-E11. […]
# Reactions on laurate = assay type: biochemical; details: laurate 2 mM, 5 hours, room temperature
# Experimental: Reactions on laurate. P450PMO activity on laurate was tested mixing the substrate (2 mM) with purified protein (up to 0.5 μM) in 100 mM KPi pH 8.0 buffer, and adding NADPH to final concentration of 1 mM. Reaction mixtures were incubated for 5 hours at room temperature under gentle stirring. Analysis of the hydroxylated products was carried out by derivatization with N-methyl-N-trimethylsilylheptafluorobutyramide (Aldrich) followed by GC analysis according to a published procedure. A control experiment was carried out using wild-type P450BM3.
# Products from alkane reactions were identified and quantified by gas chromatography using authentic standards and calibration curves with internal standards. For the reactions with alkanes from pentane to decane, GC analyses were carried out using a Shimadzu GC-17A gas chromatograph, Agilent HP5 column (30 m×0.32 mm×0.1 μm film), 1 μL injection, FID detector, and the following separation program: 250° C. inlet, 250° C. detector, 50° C. oven for 3 min, 5° C./min gradient to 100° C., 25° C./min gradient to 230° C., and 230° C. for 3 min. […] Organic solutions were analyzed by FID-GC. […]
molecule,measurement,setting,value
B1,methanol production from methane,[1]; assay detects methanol as low as 10 μM,producing methanol from methane
same,Methane TTN,[1],8
B2,hydroxylation products of laurate,Reactions on laurate,no hydroxylation product could be detected; also recorded: no detectable amounts of hydroxylated fatty acids
B3,Methane TTN,[1],10
B4,hydroxylation products of laurate,Reactions on laurate,multiple hydroxylation products were detected
